This note sets out measurements from patent US20090170718, “High-stringency screening of target-binding partners using a microfludic device” (published 2009).

Data set [1] deals with T1, Botulinum neurotoxin type A light chain (BoNT/A-rLc) (UniProt P0DPI1 P0DPI1:2-448). Kind of data set: SPR. Particulars: tags: List Biological Laboratories; coupled via amines to Dynabeads M-270 carboxylic acid for selection and bead assays.
Data set [2] addresses T1, Botulinum neurotoxin type A light chain …. Nature of the data set: SPR; 20 mM HEPES, 150 mM NaCl, 2 mM KCl, 2 mM MgCl2, 2 mM CaCl2, pH 7.4; […]. Particulars: tags: List Biological Laboratories; coupled via amines to Dynabeads M-270 carboxylic acid for selection and bead assays.

B1: aptamer d (ssDNA)
DNA: AGCAGCACAGAGGTCAGATGTCAGATGGCCGGACTCAGGCACTAGACCACTATGCTTCCGTTGCCATTCATCGGCACGTCCTATGCGTGCTACCGTGAA
As to B1, the Kd (as a rule, the equilibrium constant for the complex coming apart) in data set [1] stood at 0.053 µM.

B2: aptamer b (ssDNA)
DNA: AGCAGCACAGAGGTCAGATGTGGTCTTGTCTTTCATTCCAGGTGGCGAGTCAAATCGATACTGATCCGCTGACACAGGATCCTATGCGTGCTACCGTGAA
Take B2: in data set [1], the Kd stood at 0.086 µM.

B3: aptamer c (ssDNA)
DNA: AGCAGCACAGAGGTCAGATGCTTGAGTGTCATGGACGTTCCGGTCTTGGGCGGGATATTTGTTTGTTTTCTGCCTATGTTCCTATGCGTGCTACCGTGAA
The molecule B3 gave a Kd in data set [2] of 0.034 µM.

B4: aptamer a (ssDNA)
DNA: AGCAGCACAGAGGTCAGATGTCTTTCATACCGAGGTTGATCCAGTAGTATTCTTATCTAATTTGTTTTGTTCGTATGTGCCCTATGCGTGCTACCGTGAA
Consider B4, for which the Kd in data set [1] came to 0.065 µM.
